This is an account of results in patent publication US20220267379A1, “NOVEL INHIBITORS OF […] AND USES THEREOF” (Ecole Polytechnique Federale de Lausanne (EPFL), priority 2019, published 2022).

Positions of bridges follow the written chain, without caps; N, C: chain ends. Non-standard residues stand in square brackets, D forms with d. Chains are numbered I, II in the order given. No end group written: not given here. *: point of attachment. Palmitoyl = CCCCCCCCCCCCCCCC(=O)*; hArg = N=C(N)NCCCC[C@H](N)C(=O)O; Nle = CCCC[C@H](N)C(=O)O

Broadly, the Ki is the dissociation constant of the complex between target and ligand, obtained from inhibition or displacement. Low readings indicate higher affinity, high ones lower affinity. A word on the Kd: it is the equilibrium constant for the complex coming apart. Read a high Kd as weaker binding.

Assay [1] deals with human Kallikrein-related peptidase 5 (hKLK5) (human), Q9Y337. Put plainly: enzyme inhibition; 2,6-bis(bromomethyl)pyridine linker. Conditions: modification not given.
Sequence of human Kallikrein-related peptidase 5 (hKLK5) (human), Q9Y337 (Q9Y337 67-293): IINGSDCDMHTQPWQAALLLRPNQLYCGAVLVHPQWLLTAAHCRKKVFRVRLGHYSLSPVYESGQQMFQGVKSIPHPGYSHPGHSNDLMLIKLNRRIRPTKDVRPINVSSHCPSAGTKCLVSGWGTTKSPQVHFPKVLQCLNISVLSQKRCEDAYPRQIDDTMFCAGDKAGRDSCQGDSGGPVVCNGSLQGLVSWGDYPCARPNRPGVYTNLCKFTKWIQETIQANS
In assay [2] the target is T1, human Kallikrein-related peptidase 7 (hKLK7) (human), P49862. Put plainly: enzyme inhibition; pyridine linker. Conditions: modification not given.
Target sequence in this assay (P49862 30-253): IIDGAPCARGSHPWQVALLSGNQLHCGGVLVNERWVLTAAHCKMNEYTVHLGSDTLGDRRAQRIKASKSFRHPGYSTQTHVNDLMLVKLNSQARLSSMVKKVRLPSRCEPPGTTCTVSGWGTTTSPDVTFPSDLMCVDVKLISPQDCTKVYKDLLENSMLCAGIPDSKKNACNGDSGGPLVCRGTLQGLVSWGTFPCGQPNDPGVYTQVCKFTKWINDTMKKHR
Assay [3] concerns the target T1, human Kallikrein-related peptidase 7 …. Put plainly: enzyme inhibition; 2,6-bis(bromomethyl)pyridine linker. Conditions: modification not given.
Target sequence in this assay (P49862 30-253): as above
The target is the same in assay [4]. Put plainly: enzyme inhibition; 1,3-dibromoacetone linker. Conditions: modification not given.
Target sequence in this assay (P49862 30-253): as above
The target is the same in assay [5]. Put plainly: enzyme inhibition; ketone linker. Conditions: modification not given.
Target sequence in this assay (P49862 30-253): as above
Assay [6] concerns the target human serum albumin (HSA) (human), P02768. Put plainly: fluorescence polarization. For orientation: In fluorescence polarisation assays a small probe gives low polarisation when free and higher when bound to something large.
Assay [7] has as its target T1, human Kallikrein-related peptidase 7 …. The assay is described as follows: substrate-based activity assay.
Target sequence in this assay (P49862 30-253 limits assumed): as the sequence (P49862 30-253) above

Molecule ACTREYNPQCANPQCLCH [003] displayed a Ki in assay [1] of 6 nM.
RCLYLSCS [082] had a Ki in assay [2] of 8.8 nM. This counts as single-digit nanomolar.
Same read-out and setting: in the case of PCLYLSCS [080] it was 29.4 nM.
In turn, RCDSSQCMQGQCLYRSCP [007] gave a Ki in assay [3] of 94 nM. In other words, the double-digit nanomolar range.
On to QCLYLSCS [081], for which the Ki in assay [2] amounted to 12 nM.
In turn, FCLWPWCQPPEACPSQCE [012] returned an inhibitory constant (Ki) in assay [4] greater than 1000 nM.
In assay [3], QCLYIACPSAAKCDNGCQ [009] registered a Ki of 32 nM. This counts as double-digit nanomolar.
In assay [2], PCLYLSCP [089] had a Ki of 50 nM.
Same read-out and setting: in the case of PCLYLACS [087] it was 17.5 nM.
For HCRKGLDRCPQCLYRTCS [008], the inhibition constant (Ki) in assay [3] came to 66 nM.
With PCLYRSCS [086], in assay [2], the Ki was 53 nM.
In assay [5], PCLYLAQCS [112] gave a Ki of 36 nM.
In assay [2], PCLYLTCS [088] displayed an inhibition constant Ki of 52 nM. In other words, the double-digit nanomolar range.
For PCLYMARCS [111], the Ki in assay [5] was determined as 10 nM.

B1: KLK7 inhibitor 278-tag (final KLK7 inhibitor) (peptide)
peptide 1: PCLY[Nle]A[hArg]CGKG
peptide 2: EYEK(Palmitoyl)EYE
modifications: bridge I:2-I:8; not fully specified (some residues, N-terminus, bridges); also: chain 2 (albumin tag) attached via PEG2 to Lys10 side chain of chain 1 (branched)
Molecule B1 had a Kd in assay [6] of 164 nM. The molecule further came in with a Ki in assay [7] of 7.4 nM.
For PCLYLAC [109], in assay [2], the inhibition constant Ki came out at 19 nM.
The molecule PCLYLSRCS [095] displayed a Ki in assay [5] of 90 nM.
